From article doi:10.1101/2025.07.23.666269 (bioRxiv, 2025) come the findings set out here.

In data set [1] the target is recombinant ɸ6 protein P2 (cystovirus ɸ6) (UniProt P11124). As to the kind of experiment: MST.
The target is the same in data set [2]. As to the kind of experiment: asymmetric flow field flow fractionation.
Data set [3] concerns the target recombinant ɸ6 protein P7, full length (cystovirus ɸ6). Kind of data set: asymmetric flow field flow fractionation.
The target of data set [4] is RNA-dependent RNA polymerase P2 of cystovirus ɸ6 (in virion-derived particles) (cystovirus ɸ6) (UniProt P11124). Kind of data set: cryo-EM structure.
The target in data set [5] is minor protein P7 of cystovirus ɸ6 (in virion-derived particles) (cystovirus ɸ6). Kind of data set: cryo-EM structure.
The data set “cryo-EM structure” deals with the molecule itself. Kind of data set: cryo-EM structure.
Data set [6] concerns the target T1, recombinant ɸ6 protein P1 (cystovirus ɸ6, UniProt P11126 1-769).
T1 sequence (looked up): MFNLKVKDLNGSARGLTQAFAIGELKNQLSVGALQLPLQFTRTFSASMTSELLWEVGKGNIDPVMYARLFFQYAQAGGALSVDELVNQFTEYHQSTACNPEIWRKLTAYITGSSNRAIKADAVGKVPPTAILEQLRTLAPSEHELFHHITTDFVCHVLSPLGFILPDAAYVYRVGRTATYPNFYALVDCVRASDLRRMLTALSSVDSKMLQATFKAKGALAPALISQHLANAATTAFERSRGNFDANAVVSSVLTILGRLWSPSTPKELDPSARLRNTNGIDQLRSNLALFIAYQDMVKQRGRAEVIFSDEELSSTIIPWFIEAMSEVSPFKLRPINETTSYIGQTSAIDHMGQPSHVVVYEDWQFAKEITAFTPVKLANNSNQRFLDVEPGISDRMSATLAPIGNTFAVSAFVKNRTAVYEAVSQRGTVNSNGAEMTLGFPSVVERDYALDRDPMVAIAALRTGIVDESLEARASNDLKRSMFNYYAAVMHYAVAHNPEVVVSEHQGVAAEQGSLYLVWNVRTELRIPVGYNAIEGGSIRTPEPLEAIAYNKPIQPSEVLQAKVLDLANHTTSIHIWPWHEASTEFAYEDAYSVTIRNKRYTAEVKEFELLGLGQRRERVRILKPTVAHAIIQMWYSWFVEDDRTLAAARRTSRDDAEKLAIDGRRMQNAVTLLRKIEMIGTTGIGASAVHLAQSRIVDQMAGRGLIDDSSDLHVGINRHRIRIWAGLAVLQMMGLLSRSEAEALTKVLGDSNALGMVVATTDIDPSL
As to the kind of experiment: co-sedimentation.

Consider “recombinant ɸ6 protein P7, full length (natural protein)”, for which the Kd in data set [1] is 1.3 µM. Also, the stoichiometry N (P7 dimer per P2 monomer) in data set [2] was 1. The stoichiometry N in data set [3] is 2.

In turn, “minor protein P7 of cystovirus ɸ6 (in virion-derived particles) (natural protein)” registered a stoichiometry N (P7 dimers per P2) in data set [4] of 4. In addition, in data set [5], the stoichiometry N was 4.

As for “C-terminally truncated P7 comprising residues 2–115 (domain or fragment)”, in data set [1], the Kd came to 15.1 µM.

B1: major capsid protein P1 of cystovirus ɸ6 (in virion-derived particles) (natural protein)
chain: T1 sequence (looked up)
For B1, the “stoichiometry N” value in “cryo-EM structure” turned out to be 2.

B2: packaging NTPase P4 of cystovirus ɸ6 (in virion-derived particles) (enzyme, UniProt P11125 2-332, looked up)
chain: PIVVTQAHIDRVGIAADLLDASPVSLQVLGRPTAINTVVIKTYIAAVMELASKQGGSLAGVDIRPSVLLKDTAIFTKPKAKSADVESDVDVLDTGIYSVPGLARKPVTHRWPSEGIYSGVTALMGATGSGKSITLNEKLRPDVLIRWGEVAEAYDELDTAVHISTLDEMLIVCIGLGALGFNVAVDSVRPLLFRLKGAASAGGIVAVFYSLLTDISNLFTQYDCSVVMVVNPMVDAEKIEYVFGQVMASTVGAILCADGNVSRTMFRTNKGRIFNGAAPLAADTHMPSMDRPTSMKALDHTSIASVAPLERGSVDTDDRNSAPRRGANFSL
Consider B2, for which the “stoichiometry N” value in the data set “cryo-EM structure” worked out at 6.

B3: outer layer protein P8 of cystovirus ɸ6 (in virion-derived particles) (natural protein)
chain: MLLPVVARAAVPAIESAIAATPGLVSRIAAAIGSKVSPSAILAAVKSNPVVAGLTLAQIGSTGYDAYQQLLENHPEVAEMLKDLSFKADEIQPDFIGNLGQYREELELVEDAARFVGGMSNLIRLRQALELDIKYYGLKMQLNDMGYRS
In the case of B3, the “stoichiometry N” value in the data set “cryo-EM structure” was found to be 3.

B4: recombinant ɸ6 protein P2 (enzyme, cystovirus ɸ6)
chain: PRRAPAFPLSDIKAQMLFANNIKAQQASKRSFKEGAIETYEGLLSVDPRFLSFKNELSRYLTDHFPANVDEYGRVYGNGVRTNFFGMRHMNGFPMIPATWPLASNLKKRADADLADGPVSERDNLLFRAAVRLMFSDLEPVPLKIRKGSSTCIPYFSNDMGTKIEIAERALEKAEEAGNLMLQGKFDDAYQLHQMGGAYYVVYRAQSTDAITLDPKTGKFVSKDRMVADFEYAVTGGEQGSLFAASKDASRLKEQYGIDVPDGFFCERRRTAMGGPFALNAPIMAVAQPVRNKIYSKYAYTFHHTTRLNKEEKVKEWSLCVATDVSDHDTFWPGWLRDLICDELLNMGYAPWWVKLFETSLKLPVYVGAPAPEQGHTLLGDPSNPDLEVGLSSGQGATDLMGTLLMSITYLVMQLDHTAPHLNSRIKDMPSACRFLDSYWQGHEEIRQISKSDDAILGWTKGRALVGGHRLFEMLKEGKVNPSPYMKISYEHGGAFLGDILLYDSRREPGSAIFVGNINSMLNNQFSPEYGVQSGVRDRSKRKRPFPGLAWASMKDTYGACPIYSDVLEAIERCWWNAFGESYRAYREDMLKRDTLELSRYVASMARQAGLAELTPIDLEVLADPNKLQYKWTEADVSANIHEVLMHGVSVEKTERFLRSVMPR
modifications: RED fluorescent dye NT-647-NHS (Monolith Protein Labeling Kit RED-NHS), in the MST only
For the molecule B4, in data set [6], the binding result is reported as “binds”.
